# Measured values reported in patent US20260248972A1, “DUAL RECEPTOR TARGETING RADIOLIGANDS AND USES THEREOF RELATED APPLICATIONS” (priority 2022, published 2026).
# Experiment: in vivo
# Details: BALB/c nude, mouse, in vivo, iv, total radioactivity
# Procedure, shortened: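 Compounds labelled with ^177Lu in 0.5 M NaOAc pH 4.5 at 95° C for 15 min, then used directly or diluted in PBS with 3 mg/mL ascorbate. BALB/c nude mice bore subcutaneous AR42J flank xenografts (0.05-0.50 g). Organs excised at 4, 24 and 72 h post-injection and γ-counted for % ID and % ID/g.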
compound,measurement,setting,value
"CC(C)(C)C(=O)CN1C(=O)[C@H](NC(=O)Nc2cccc(C(=O)N[C@@H](CCC(=O)N[C@@H](CCC(=O)N[C@@H](CCC(=O)N[C@@H](CCCCNC(=O)COCCOCCNC(=O)COCCOCCNC(=O)CCC(C(=O)O)N3CCN(CC(=O)O)CCN(CC(=O)O)CCN(CC(=O)O)CC3)C(N)=O)C(=O)O)C(=O)O)C(=O)O)c2)CN(C2CCCCC2)c2ccccc21 (stereo partly drawn) [^177Lu-C-4, metal not drawn, reference compound]",tissue uptake at 4 h,% ID/g Blood,0.09 %ID/g
same,tissue uptake at 24 h,% ID/g Blood,0.01 %ID/g
same,tissue uptake at 4 h,% ID/g Femur,0.04 %ID/g
same,tissue uptake at 24 h,% ID/g Femur,0.04 %ID/g
same,tissue uptake at 4 h,% ID/g Heart,0.07 %ID/g
same,tissue uptake at 24 h,% ID/g Heart,0.03 %ID/g
same,tissue uptake at 4 h,% ID/g Intestine,0.12 %ID/g
same,tissue uptake at 24 h,% ID/g Intestine,0.04 %ID/g
same,tissue uptake at 4 h,% ID/g Kidney,3.38 %ID/g
same,tissue uptake at 24 h,% ID/g Kidney,1.32 %ID/g
same,tissue uptake at 4 h,% ID/g Liver,0.17 %ID/g
same,tissue uptake at 24 h,% ID/g Liver,0.11 %ID/g
same,tissue uptake at 4 h,% ID/g Lung,0.07 %ID/g
same,tissue uptake at 24 h,% ID/g Lung,0.03 %ID/g
same,tissue uptake at 4 h,% ID/g Muscle,0.02 %ID/g
same,tissue uptake at 24 h,% ID/g Muscle,0.01 %ID/g
same,tissue uptake at 4 h,% ID/g Pancreas,0.03 %ID/g
same,tissue uptake at 24 h,% ID/g Pancreas,0.01 %ID/g
same,tissue uptake at 4 h,% ID/g Spleen,0.06 %ID/g
same,tissue uptake at 24 h,% ID/g Spleen,0.02 %ID/g
same,tissue uptake at 4 h,% ID/g Stomach,0.06 %ID/g
same,tissue uptake at 24 h,% ID/g Stomach,0.03 %ID/g
same,tissue uptake at 4 h,% ID/g Tumor,4.69 %ID/g
same,tissue uptake at 24 h,% ID/g Tumor,1.44 %ID/g
"C[C@@H](O)[C@H](NC(=O)[C@@H]1CSSC[C@H](NC(=O)[C@@H](Cc2ccccc2)NC(=O)[C@H](CCCCNC(=O)c2cccc(NC(=O)N[C@@H]3CN(C4CCCCC4)c4ccccc4N(CC(=O)C(C)(C)C)C3=O)c2)NC(=O)COCCOCCNC(=O)CN2CCN(CC(=O)O)CCN(CC(=O)O)CCN(CC(=O)O)CC2)C(=O)N[C@@H](Cc2ccc(O)cc2)C(=O)N[C@H](Cc2c[nH]c3ccccc23)C(=O)N[C@@H](CCCCN)C(=O)N[C@@H]([C@@H](C)O)C(=O)N1)C(=O)O [^177Lu-I-35, metal not drawn]",tissue uptake at 4 h,% ID/g Adrenal gland,2.8 %ID/g
same,tissue uptake at 24 h,% ID/g Adrenal gland,2.3 %ID/g
same,tissue uptake at 72 h,% ID/g Adrenal gland,0.34 %ID/g
same,tissue uptake at 4 h,% ID/g Blood,1.98 %ID/g
same,tissue uptake at 24 h,% ID/g Blood,0.11 %ID/g
same,tissue uptake at 72 h,% ID/g Blood,0.03 %ID/g
same,tissue uptake at 4 h,% ID/g Fat,3.49 %ID/g
same,tissue uptake at 24 h,% ID/g Fat,0.75 %ID/g
same,tissue uptake at 72 h,% ID/g Fat,0.41 %ID/g
same,tissue uptake at 4 h,% ID/g Femur,1.01 %ID/g
same,tissue uptake at 24 h,% ID/g Femur,0.52 %ID/g
same,tissue uptake at 72 h,% ID/g Femur,0.21 %ID/g
same,tissue uptake at 4 h,% ID/g Heart,1.26 %ID/g
same,tissue uptake at 24 h,% ID/g Heart,0.56 %ID/g
same,tissue uptake at 72 h,% ID/g Heart,0.25 %ID/g
same,tissue uptake at 4 h,% ID/g Intestine,2.36 %ID/g
same,tissue uptake at 24 h,% ID/g Intestine,0.84 %ID/g
same,tissue uptake at 72 h,% ID/g Intestine,0.72 %ID/g
same,tissue uptake at 4 h,% ID/g Kidney,18.5 %ID/g
same,tissue uptake at 24 h,% ID/g Kidney,6.06 %ID/g
same,tissue uptake at 72 h,% ID/g Kidney,4.51 %ID/g
same,tissue uptake at 4 h,% ID/g Liver,18.1 %ID/g
same,tissue uptake at 24 h,% ID/g Liver,5.06 %ID/g
same,tissue uptake at 72 h,% ID/g Liver,2.41 %ID/g
same,tissue uptake at 4 h,% ID/g Lung,3.44 %ID/g
same,tissue uptake at 24 h,% ID/g Lung,1.73 %ID/g
same,tissue uptake at 72 h,% ID/g Lung,0.66 %ID/g
same,tissue uptake at 4 h,% ID/g Muscle,0.42 %ID/g
same,tissue uptake at 24 h,% ID/g Muscle,0.12 %ID/g
same,tissue uptake at 72 h,% ID/g Muscle,0.03 %ID/g
same,tissue uptake at 4 h,% ID/g Pancreas,5.03 %ID/g
same,tissue uptake at 24 h,% ID/g Pancreas,0.96 %ID/g
same,tissue uptake at 72 h,% ID/g Pancreas,0.34 %ID/g
same,tissue uptake at 4 h,% ID/g Spleen,0.82 %ID/g
same,tissue uptake at 24 h,% ID/g Spleen,0.47 %ID/g
same,tissue uptake at 72 h,% ID/g Spleen,0.28 %ID/g
same,tissue uptake at 4 h,% ID/g Stomach,6.98 %ID/g
same,tissue uptake at 24 h,% ID/g Stomach,3.09 %ID/g
same,tissue uptake at 72 h,% ID/g Stomach,2.29 %ID/g
same,tissue uptake at 4 h,% ID/g Tumor,27.2 %ID/g
same,tissue uptake at 24 h,% ID/g Tumor,17.8 %ID/g
same,tissue uptake at 72 h,% ID/g Tumor,18 %ID/g
"C[C@@H](O)[C@H](NC(=O)[C@@H]1CSSC[C@H](NC(=O)[C@@H](Cc2ccccc2)NC(=O)[C@H](CCCCNC(=O)COCCOCCNC(=O)c2cccc(NC(=O)N[C@@H]3CN(C4CCCCC4)c4ccccc4N(CC(=O)C(C)(C)C)C3=O)c2)NC(=O)CN2CCN(CC(=O)O)CCN(CC(=O)O)CCN(CC(=O)O)CC2)C(=O)N[C@@H](Cc2ccc(O)cc2)C(=O)N[C@H](Cc2c[nH]c3ccccc23)C(=O)N[C@@H](CCCCN)C(=O)N[C@@H]([C@@H](C)O)C(=O)N1)C(=O)O [^177Lu-I-36, metal not drawn]",tissue uptake at 4 h,% ID/g Adrenal gland,2.48 %ID/g
same,tissue uptake at 24 h,% ID/g Adrenal gland,1.67 %ID/g
same,tissue uptake at 72 h,% ID/g Adrenal gland,0.87 %ID/g
same,tissue uptake at 4 h,% ID/g Blood,2.09 %ID/g
same,tissue uptake at 24 h,% ID/g Blood,0.7 %ID/g
same,tissue uptake at 72 h,% ID/g Blood,0.21 %ID/g
same,tissue uptake at 4 h,% ID/g Fat,3.32 %ID/g
same,tissue uptake at 24 h,% ID/g Fat,2.39 %ID/g
same,tissue uptake at 72 h,% ID/g Fat,1.12 %ID/g
same,tissue uptake at 4 h,% ID/g Femur,0.79 %ID/g
same,tissue uptake at 24 h,% ID/g Femur,0.76 %ID/g
same,tissue uptake at 72 h,% ID/g Femur,0.59 %ID/g
same,tissue uptake at 4 h,% ID/g Heart,1.36 %ID/g
same,tissue uptake at 24 h,% ID/g Heart,0.85 %ID/g
same,tissue uptake at 72 h,% ID/g Heart,0.47 %ID/g
same,tissue uptake at 4 h,% ID/g Intestine,2.27 %ID/g
same,tissue uptake at 24 h,% ID/g Intestine,1.29 %ID/g
same,tissue uptake at 72 h,% ID/g Intestine,1.39 %ID/g
same,tissue uptake at 4 h,% ID/g Kidney,20.7 %ID/g
same,tissue uptake at 24 h,% ID/g Kidney,18.4 %ID/g
same,tissue uptake at 72 h,% ID/g Kidney,14.2 %ID/g
same,tissue uptake at 4 h,% ID/g Liver,12 %ID/g
same,tissue uptake at 24 h,% ID/g Liver,7.22 %ID/g
same,tissue uptake at 72 h,% ID/g Liver,3.99 %ID/g
same,tissue uptake at 4 h,% ID/g Lung,2.89 %ID/g
same,tissue uptake at 24 h,% ID/g Lung,1.72 %ID/g
same,tissue uptake at 72 h,% ID/g Lung,1.36 %ID/g
same,tissue uptake at 4 h,% ID/g Muscle,0.41 %ID/g
same,tissue uptake at 24 h,% ID/g Muscle,0.25 %ID/g
same,tissue uptake at 72 h,% ID/g Muscle,0.13 %ID/g
same,tissue uptake at 4 h,% ID/g Pancreas,5.66 %ID/g
same,tissue uptake at 24 h,% ID/g Pancreas,3.34 %ID/g
same,tissue uptake at 72 h,% ID/g Pancreas,1.28 %ID/g
same,tissue uptake at 4 h,% ID/g Spleen,0.97 %ID/g
same,tissue uptake at 24 h,% ID/g Spleen,0.85 %ID/g
same,tissue uptake at 72 h,% ID/g Spleen,0.36 %ID/g
same,tissue uptake at 4 h,% ID/g Stomach,6.6 %ID/g
same,tissue uptake at 24 h,% ID/g Stomach,5.96 %ID/g
same,tissue uptake at 72 h,% ID/g Stomach,3.8 %ID/g
same,tissue uptake at 4 h,% ID/g Tumor,45.1 %ID/g
same,tissue uptake at 24 h,% ID/g Tumor,35.2 %ID/g
same,tissue uptake at 72 h,% ID/g Tumor,36.4 %ID/g
